Read-outs that look alike come from different tables or passages of the source.
Experiments:
[1] = molecular target: T1, diol dehydratase PduCDE (Salmonella enterica, UniProt P37450 1-554; O31041 1-224; O31042 1-173); assay: time-resolved fluorescence anisotropy
T1 sequence (looked up) 1: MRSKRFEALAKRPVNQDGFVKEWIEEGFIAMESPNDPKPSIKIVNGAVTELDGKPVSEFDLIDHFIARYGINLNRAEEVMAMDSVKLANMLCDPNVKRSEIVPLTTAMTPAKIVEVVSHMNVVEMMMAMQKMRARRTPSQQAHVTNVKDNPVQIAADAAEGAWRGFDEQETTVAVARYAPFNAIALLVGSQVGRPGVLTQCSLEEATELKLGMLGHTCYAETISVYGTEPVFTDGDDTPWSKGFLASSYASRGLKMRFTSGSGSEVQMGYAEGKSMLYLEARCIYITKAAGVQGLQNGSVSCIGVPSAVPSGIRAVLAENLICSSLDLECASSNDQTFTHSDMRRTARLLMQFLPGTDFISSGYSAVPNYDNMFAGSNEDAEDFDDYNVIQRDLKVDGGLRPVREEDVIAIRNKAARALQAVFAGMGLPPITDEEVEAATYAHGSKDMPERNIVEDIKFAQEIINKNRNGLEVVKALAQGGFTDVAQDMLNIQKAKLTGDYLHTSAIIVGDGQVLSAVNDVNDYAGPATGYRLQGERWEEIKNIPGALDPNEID
T1 sequence (looked up) 2: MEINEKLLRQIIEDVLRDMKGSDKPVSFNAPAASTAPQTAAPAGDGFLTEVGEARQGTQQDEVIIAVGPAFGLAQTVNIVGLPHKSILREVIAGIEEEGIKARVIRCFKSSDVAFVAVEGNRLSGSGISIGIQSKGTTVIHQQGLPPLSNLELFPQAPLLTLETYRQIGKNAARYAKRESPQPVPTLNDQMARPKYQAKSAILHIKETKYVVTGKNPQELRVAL
T1 sequence (looked up) 3: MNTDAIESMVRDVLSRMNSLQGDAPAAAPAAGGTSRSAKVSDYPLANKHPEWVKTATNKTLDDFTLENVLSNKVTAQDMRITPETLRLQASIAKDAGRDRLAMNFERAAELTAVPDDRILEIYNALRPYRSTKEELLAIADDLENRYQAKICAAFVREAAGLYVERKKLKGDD

[2] = molecular target: the molecule itself; assay: dynamic light scattering
[3] = molecular target: T1, diol dehydratase PduCDE; assay: time-resolved fluorescence anisotropy; remark: listed apart in the source

B1: shell protein PduB (N-terminal truncated) (natural protein, Salmonella enterica, UniProt P37449 38-270, looked up)
chain: MAEKSCSLTEFVGTAIGDTLGLVIANVDTALLDAMKLEKRYRSIGILGARTGAGPHIMAADEAVKATNTEVVSIELPRDTKGGAGHGSLIILGGNDVSDVKRGIEVALKELDRTFGDVYGNEAGHIELQYTARASYALEKAFGAPIGRACGIIVGAPASVGVLMADTALKSANVEVVAYSSPAHGTSFSNEAILVISGDSGAVRQAVTSAREIGKTVLATLGSEPKNDRPSYI
Does B1 bind [1]?
Result: binds

Does B1 bind [2]?
Result: binds

B2: shell protein PduB’M38L (natural protein, Salmonella enterica, UniProt P37449 1-270, looked up)
chain: MSSNELVEQIMAQVIARVATPEQQAIPGQPQPIRETALAEKSCSLTEFVGTAIGDTLGLVIANVDTALLDAMKLEKRYRSIGILGARTGAGPHIMAADEAVKATNTEVVSIELPRDTKGGAGHGSLIILGGNDVSDVKRGIEVALKELDRTFGDVYGNEAGHIELQYTARASYALEKAFGAPIGRACGIIVGAPASVGVLMADTALKSANVEVVAYSSPAHGTSFSNEAILVISGDSGAVRQAVTSAREIGKTVLATLGSEPKNDRPSYI
Does B2 bind [3]?
Result: binds

— article doi:10.1101/2020.02.18.954511 (bioRxiv, 2020)
